Values joined by “and” are separate entries in the source; they are usually repeats but may differ in a detail not shown here. Equal values may be shown once. Read-outs that look alike come from different tables or passages of the source. Some results are limits rather than exact numbers.

Assay [1] concerns the target T1, IGF2 (human, UniProt P01344). Kind of assay: SPR. (Surface plasmon resonance follows binding to a sensor surface in real time, without labels.)
For assay [2], the target named is T1, IGF2. Briefly: ELISA. (In general: An ELISA detects its analyte on a solid surface through an enzyme-linked reagent.)
Assay [3] deals with T2, IGF1 (human, UniProt P05019). Briefly: SPR.
Assay [4] concerns the target T2, IGF1. Kind of assay: ELISA.
Assay [5] deals with T2, IGF1. Briefly: ELISA. The source holds these as a separate data set.
Assay [6] concerns the target T1, IGF2. Briefly: ELISA. This is another data set of the same source.
The target in the next assay is T3, CD80 (human, UniProt P33681).
T3 chain: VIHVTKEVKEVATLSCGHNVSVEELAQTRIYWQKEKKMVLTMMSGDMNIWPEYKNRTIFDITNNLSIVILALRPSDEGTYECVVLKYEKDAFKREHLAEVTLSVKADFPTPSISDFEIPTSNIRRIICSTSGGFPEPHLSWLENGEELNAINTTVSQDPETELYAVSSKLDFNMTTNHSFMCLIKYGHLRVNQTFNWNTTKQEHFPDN
Kind of assay: ELISA.

For assay [7], the target named is T4, RON (human, UniProt Q04912). Kind of assay: SPR.
In assay [8] the target is T4, RON. Briefly: ELISA.
Assay [9] addresses T4, RON. Kind of assay: ELISA. This is another data set of the same source.
The target in another assay is CD22 (human, UniProt P20273). Kind of assay: ELISA.
In assay [10] the target is T5, HGF (human, UniProt P14210). Briefly: SPR.
The target of assay [11] is T5, HGF. Briefly: ELISA.
Assay [12] has as its target T5, HGF. Briefly: competition.
Assay [13] addresses T5, HGF. Kind of assay: ELISA. The source holds these as a separate data set.
In assay [14] the target is T6, DLL4 (human, UniProt Q9NR61). Kind of assay: ELISA.
In assay [15] the target is T6, DLL4. Kind of assay: SPR.
Assay [16] addresses T6, DLL4. Kind of assay: ELISA. The source holds these as a separate data set.
Assay [17] concerns the target T6, DLL4. Kind of assay: competition.
In assay [18] the target is T6, DLL4. Briefly: ELISA. The source holds these as a separate data set.
Assay [19] concerns the target T7, NRP1 (human, UniProt O14786). Kind of assay: ELISA.
For assay [20], the target named is T7, NRP1. Briefly: SPR.

T6 sequence (Q9NR61 27-524): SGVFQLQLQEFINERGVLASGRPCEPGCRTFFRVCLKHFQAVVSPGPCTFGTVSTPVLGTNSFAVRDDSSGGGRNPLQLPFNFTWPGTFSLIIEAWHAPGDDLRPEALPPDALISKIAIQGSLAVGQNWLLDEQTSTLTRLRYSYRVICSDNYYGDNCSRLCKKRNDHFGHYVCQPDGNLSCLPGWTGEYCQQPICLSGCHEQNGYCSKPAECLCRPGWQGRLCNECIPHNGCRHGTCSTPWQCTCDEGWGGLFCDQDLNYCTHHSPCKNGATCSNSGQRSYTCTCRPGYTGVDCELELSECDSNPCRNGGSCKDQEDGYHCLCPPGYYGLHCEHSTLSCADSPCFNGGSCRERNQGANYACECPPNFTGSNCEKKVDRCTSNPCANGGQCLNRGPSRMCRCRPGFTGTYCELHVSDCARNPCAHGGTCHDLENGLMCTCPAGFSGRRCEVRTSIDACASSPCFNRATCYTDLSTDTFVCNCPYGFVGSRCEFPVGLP
T5 sequence (P14210 32-728): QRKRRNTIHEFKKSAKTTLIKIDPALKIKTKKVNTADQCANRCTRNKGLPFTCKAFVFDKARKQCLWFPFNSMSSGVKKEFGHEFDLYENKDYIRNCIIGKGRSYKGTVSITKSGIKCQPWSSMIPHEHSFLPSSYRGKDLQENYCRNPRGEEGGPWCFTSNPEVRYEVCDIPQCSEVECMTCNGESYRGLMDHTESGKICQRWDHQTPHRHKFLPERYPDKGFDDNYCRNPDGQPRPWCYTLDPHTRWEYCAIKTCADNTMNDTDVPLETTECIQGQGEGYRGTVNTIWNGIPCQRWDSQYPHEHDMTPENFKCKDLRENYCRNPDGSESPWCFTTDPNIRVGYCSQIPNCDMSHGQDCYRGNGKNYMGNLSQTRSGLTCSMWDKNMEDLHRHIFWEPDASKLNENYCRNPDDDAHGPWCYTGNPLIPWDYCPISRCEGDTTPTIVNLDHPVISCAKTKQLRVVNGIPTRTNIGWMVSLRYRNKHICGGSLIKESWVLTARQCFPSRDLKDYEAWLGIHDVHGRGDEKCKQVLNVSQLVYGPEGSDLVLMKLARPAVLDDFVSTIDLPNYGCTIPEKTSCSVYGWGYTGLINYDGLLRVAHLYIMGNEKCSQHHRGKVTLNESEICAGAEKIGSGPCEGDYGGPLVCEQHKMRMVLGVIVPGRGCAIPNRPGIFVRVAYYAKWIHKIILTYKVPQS

B1: DVD029 IGF1,2 arm (antibody, V domains shown)
VH: QVQLVQSGAEVKKPGASVKVSCKASGYTFTSYDINWVRQATGQGLEWMGWMNPNSGNTGYAQKFQGRVTMTRNTSISTAYMELSSLRSEDTAVYYCARDPYYYYYGMDVWGQGTTVTVSS
VL: QSVLTQPPSVSAAPGQKVTISCSGSSSNIENNHVSWYQQLPGTAPKLLIYDNNKRPSGIPDRFSGSKSGTSATLGITGLQTGDEADYYCETWDTSLSAGRVFGGGTKLTVLG
modifications: DVD-Ig inner
As usually defined, the Kd is the equilibrium constant for the complex coming apart. High values mean a looser complex, low ones a tighter complex. As usually defined, the EC50 is the midpoint of the concentration-response curve. A high value points to a need for much substance. In the case of B1, the values for the Kd in the assay with IGF2 [1] and in the assay with IGF1 [3] were 0.302 nM and 6.36 nM, respectively. The EC50 was 206 nM in the assay with IGF2 [2], 229 nM with IGF1 [4], 229 nM with IGF1 [5] and 206 nM with IGF2 [6].

B2: AB007 (antibody, V domains shown)
VH: QVQLQESGPGLVKPSETLSLTCAVSGGSISGGYGWGWIRQPPGKGLEWIGSFYSSSGNTYYNPSLKSQVTISTDTSKNQFSLKLNSMTAADTAVYYCVRDRLFSVVGMVYNNWFDVWGPGVLVTVSS
VL: ESALTQPPSVSGAPGQKVTISCTGSTSNIGGYDLHWYQQLPGTAPKLLIYDINKRPSGISDRFSGSKSGTAASLAITGLQTEDEADYYCQSYDSSLNAQVFGGGTRLTVLG
Molecule B2 displayed a concentration giving a half-maximal response (EC50) with CD80 of 0.77 nM.

B3: AB005 (antibody, V domains shown)
VH: EVQLVQSGGGLVKPGGSLRLSCAASGFTFSSYAMHWVRQAPGKGLEWVAVISYDGSNKYYADSVKGRFTISRDNSKNTLYLQMNSLRAEDTAVYYCARFSGWPNNYYYYGMDVWGQGTTVTVSS
VL: DVVMTQSPLSLPVTPGEPASISCRSSQSLLHSNGFNYVDWYLQKPGQSPHLLIYFGSYRASGVPDRFSGSGSGTDFTLKISRVEAEDVGVYYCMQALQTPPWTFGQGTKVEIRR
With B3, the dissociation constant Kd with RON [7] was 20.2 nM and 20.1 nM. The concentration giving a half-maximal response (EC50) with RON [8] is 1.6 nM and 0.7 nM and 1.3 nM; with RON [9], 0.26 nM and 0.21 nM.

B4: AB008 (antibody, V domains shown)
VH: QVQLVQSGAEVKKPGSSVKVSCKASGYTFTSYWLHWVRQAPGQGLEWIGYINPRNDYTEYNQNFKDKATITADESTNTAYMELSSLRSEDTAFYFCARRDITTFYWGQGTTVTVSS
VL: DIQLTQSPSSLSASVGDRVTMSCKSSQSVLYSANHKNYLAWYQQKPGKAPKLLIYWASTRESGVPSRFSGSGSGTDFTFTISSLQPEDIATYYCHQYLSSWTFGGGTKLEIKR
In turn, B4 yielded an EC50 with CD22 of 3.44 nM.

B5: DVD045 HGF arm (antibody, V domains shown)
VH: QVQLVESGGGLVKPGGSLRLSCAASGFTFSDYYMSWIRQAPGKGLEWVSYISSSGSTIYYADSVKGRFTISRDNAKNSLYLQMNSLRAEDTAVYYCARDEYNSGWYVLFDYWGQGTLVTVSS
VL: DIQMTQSPSSVSASVGDRVTITCRASQGISSWLAWYQQKPGKAPNLLIYEASSLQSGVPSRFGGSGSGTDFTLTISSLQPEDFATYYCQQANGFPWTFGQGTKVEIKR
modifications: DVD-Ig inner
As a reminder, the IC50 is the midpoint of a concentration-inhibition curve. Low readings indicate greater potency, high ones weaker potency. As to B5, the affinity with HGF [10], expressed as Kd, was 0.901 nM. Moreover, the values for the EC50 with HGF [11] and with HGF [13] were greater than 100 nM and 185 nM, respectively. The molecule also registered an IC50 in the assay with HGF [12] greater than 100 nM.

B6: AB015 (antibody)
chain 1: EVQLVESGGGLVQPGGSLRLSCAASGFTFTDNWISWVRQAPGKGLEWVGYISPNSGFTYYADSVKGRFTISADTSKNTAYLQMNSLRAEDTAVYYCARDNFGGYFDYWGQGTLVTVSS
chain 2: DIQMTQSPSSLSASVGDRVTITCRASQDVSTAVAWYQQKPGKAPKLLIYSASFLYSGVPSRFSGSGSGTDFTLTISSLQPEDFATTYYCQQSYTGTVTFGQGTKVEIKR
For B6, the EC50 with DLL4 [14] stood at 0.31 nM; with DLL4 [16], 0.03 nM. Besides, in the assay with DLL4 [15], the Kd was 0.414 nM. The half-maximal inhibitory concentration (IC50) with DLL4 [17] was 0.37 nM and 0.4 nM.

B7: DVD044 DLL4 arm (antibody)
chain 1: EVQLVESGGGLVQPGGSLRLSCAASGFTFTDNWISWVRQAPGKGLEWVGYISPNSGFTYYADSVKGRFTISADTSKNTAYLQMNSLRAEDTAVYYCARDNFGGYFDYWGQGTLVTVSS
chain 2: DIQMTQSPSSLSASVGDRVTITCRASQDVSTAVAWYQQKPGKAPKLLIYSASFLYSGVPSRFSGSGSGTDFTLTISSLQPEDFATTYYCQQSYTGTVTFGQGTKVEIKR
modifications: DVD-Ig outer
On to B7, for which the concentration giving a half-maximal response (EC50) was 0.53 nM in the assay with DLL4 [14], 0.06 nM with DLL4 [16] and 0.25 nM in the assay with DLL4 [18]. Besides, binding in the assay with DLL4 [15] was characterised by a dissociation constant (Kd) of 0.347 nM. Besides, in the assay with DLL4 [17], the IC50 was 0.5 nM.

B8: DVD043 DLL4 arm (antibody)
chain 1: EVQLVESGGGLVQPGGSLRLSCAASGFTFTDNWISWVRQAPGKGLEWVGYISPNSGFTYYADSVKGRFTISADTSKNTAYLQMNSLRAEDTAVYYCARDNFGGYFDYWGQGTLVTVSS
chain 2: DIQMTQSPSSLSASVGDRVTITCRASQDVSTAVAWYQQKPGKAPKLLIYSASFLYSGVPSRFSGSGSGTDFTLTISSLQPEDFATTYYCQQSYTGTVTFGQGTKVEIKR
modifications: DVD-Ig inner
Regarding B8, the values for the EC50 in the assay with DLL4 [14], in the assay with DLL4 [16] and with DLL4 [18] were 2.12 nM, 0.5 nM and 0.67 nM, respectively. The same molecule displayed a dissociation constant (Kd) with DLL4 [15] of 2.32 nM. In addition, the half-maximal inhibitory concentration (IC50) in the assay with DLL4 [17] turned out to be 13.1 nM.

B9: AB016 (antibody, V domains shown)
VH: EVQLVESGGGLVQPGGSLRLSCAASGFSFSSEPISWVRQAPGKGLEWVSSITGKNGYTYYADSVKGRFTISADTSKNTAYLQMNSLRAEDTAVYYCARWGKKVYGMDVWGQGTLVTVSS
VL: DIQMTQSPSSLSASVGDRVTITCRASQSISSYLAWYQQKPGKAPKLLIYGASSRASGVPSRFSGSGSGTDFTLTISSLQPEDFATYYCQQYMSVPITFGQGTKVEIKR
Take B9: in the assay with NRP1 [19], it took 0.58 nM to reach a half-maximal effect (EC50). The molecule also returned a dissociation constant (Kd) with NRP1 [20] of 2.67 nM.

B10: DVD050 NRP1 arm (antibody, V domains shown)
VH: EVQLVESGGGLVQPGGSLRLSCAASGFSFSSEPISWVRQAPGKGLEWVSSITGKNGYTYYADSVKGRFTISADTSKNTAYLQMNSLRAEDTAVYYCARWGKKVYGMDVWGQGTLVTVSS
VL: DIQMTQSPSSLSASVGDRVTITCRASQSISSYLAWYQQKPGKAPKLLIYGASSRASGVPSRFSGSGSGTDFTLTISSLQPEDFATYYCQQYMSVPITFGQGTKVEIKR
modifications: DVD-Ig outer
As to B10, the EC50 with NRP1 [19] is 0.46 nM. This molecule also came in with a Kd with NRP1 [20] of 1.44 nM.

B11: DVD049 NRP1 arm (antibody, V domains shown)
VH: EVQLVESGGGLVQPGGSLRLSCAASGFSFSSEPISWVRQAPGKGLEWVSSITGKNGYTYYADSVKGRFTISADTSKNTAYLQMNSLRAEDTAVYYCARWGKKVYGMDVWGQGTLVTVSS
VL: DIQMTQSPSSLSASVGDRVTITCRASQSISSYLAWYQQKPGKAPKLLIYGASSRASGVPSRFSGSGSGTDFTLTISSLQPEDFATYYCQQYMSVPITFGQGTKVEIKR
modifications: DVD-Ig inner
In turn, B11 showed an EC50 with NRP1 [19] of 0.5 nM. This molecule came in with a dissociation constant Kd in the assay with NRP1 [20] of 1.28 nM.

The values above are taken from patent publication US9029508 (dated 2015).
